Experiments:
UGT76G1 [1] = molecular target: T1, UGT76G1 (Stevia rebaudiana, UniProt Q6VAB4); test: X-ray crystal structure; type: binding
T1 construct: synthetic gene in pET21a (NdeI/XhoI), C-terminal hexa-histidine tag, E. coli BL21 (DE3), monomer
T1 sequence (Q6VAB4 1-458): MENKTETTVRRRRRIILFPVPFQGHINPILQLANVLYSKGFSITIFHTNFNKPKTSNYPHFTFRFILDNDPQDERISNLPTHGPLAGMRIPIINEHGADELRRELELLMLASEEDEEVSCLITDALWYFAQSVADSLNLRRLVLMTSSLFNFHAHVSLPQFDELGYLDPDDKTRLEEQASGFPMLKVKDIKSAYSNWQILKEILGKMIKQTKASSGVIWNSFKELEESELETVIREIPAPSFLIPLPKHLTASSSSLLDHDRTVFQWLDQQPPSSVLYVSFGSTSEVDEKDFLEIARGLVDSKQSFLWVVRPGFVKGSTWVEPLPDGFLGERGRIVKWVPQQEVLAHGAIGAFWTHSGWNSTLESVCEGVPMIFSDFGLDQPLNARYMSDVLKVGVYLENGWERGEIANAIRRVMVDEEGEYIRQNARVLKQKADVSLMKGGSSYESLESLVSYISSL

UGT76G1 [2] = molecular target: T2, UGT76G1 (Stevia rebaudiana, UniProt Q6VAB4, H25A); test: X-ray crystal structure; type: binding; conditions: sodium citrate pH 5.4, PEG 4000; 1 mM UDP
T2 construct: synthetic gene in pET21a (NdeI/XhoI), C-terminal hexa-histidine tag, E. coli BL21 (DE3), monomer

purified protein [3] = substrate: C=C1C[C@@]23CC[C@H]4[C@@](C)(CCC[C@@]4(C)C(=O)O[C@@H]4O[C@H](CO)[C@@H](O)[C@H](O)[C@H]4O)[C@@H]2CC[C@]1(O[C@@H]1O[C@H](CO)[C@@H](O)[C@H](O[C@@H]2O[C@H](CO)[C@@H](O)[C@H](O)[C@H]2O)[C@H]1O[C@@H]1O[C@H](CO)[C@@H](O)[C@H](O)[C@H]1O)C3; test: purified protein; conditions: UDPG 100 μM; transfer at R2
purified protein [4] = substrate: C=C1C[C@@]23CC[C@H]4[C@@](C)(CCC[C@@]4(C)C(=O)O[C@@H]4O[C@H](CO)[C@@H](O)[C@H](O)[C@H]4O)[C@@H]2CC[C@]1(O[C@@H]1O[C@H](CO)[C@@H](O)[C@H](O)[C@H]1O[C@@H]1O[C@H](CO)[C@@H](O)[C@H](O)[C@H]1O)C3; test: purified protein; conditions: UDPG 100 μM; transfer at R1 (initial rate, <10% consumption)
[5] = substrate: O=c1ccn([C@@H]2O[C@H](CO[P@@](=O)(O)O[P@@](=O)(O)O[C@H]3O[C@H](CO)[C@@H](O)[C@H](O)[C@H]3O)[C@@H](O)[C@H]2O)c(=O)[nH]1; test: UDP-Glo glycosyltransferase assay, Michaelis-Menten fit; type: biochemical, Stevia rebaudiana; conditions: sugar donor; acceptor STB 50 μM
Text: (§1) UDP-Glo glycosyltransferase assay, Michaelis-Menten fit on UGT76G1

[6] = substrate: C=C1C[C@@]23CC[C@H]4[C@@](C)(CCC[C@@]4(C)C(=O)O[C@@H]4O[C@H](CO)[C@@H](O)[C@H](O)[C@H]4O[C@@H]4O[C@H](CO)[C@@H](O)[C@H](O)[C@H]4O)[C@@H]2CC[C@]1(O[C@@H]1O[C@H](CO)[C@@H](O)[C@H](O)[C@H]1O[C@@H]1O[C@H](CO)[C@@H](O)[C@H](O)[C@H]1O)C3; test: as above; type: biochemical, Stevia rebaudiana; conditions: UDPG 100 μM; transfer at R1 (initial rate, <10% consumption)
Text: as §1

[7] = substrate: C=C1C[C@@]23CC[C@H]4[C@@](C)(CCC[C@@]4(C)C(=O)O[C@@H]4O[C@H](CO)[C@@H](O)[C@H](O)[C@H]4O)[C@@H]2CC[C@]1(O[C@@H]1O[C@H](CO)[C@@H](O)[C@H](O)[C@H]1O)C3; test: as above; type: biochemical, Stevia rebaudiana; conditions: UDPG 100 μM; transfer at R1 (initial rate, <10% consumption)
Text: as §1

[8] = substrate: C=C1C[C@@]23CC[C@H]4[C@@](C)(CCC[C@@]4(C)C(=O)O)[C@@H]2CC[C@]1(O[C@@H]1O[C@H](CO)[C@@H](O)[C@H](O)[C@H]1O[C@@H]1O[C@H](CO)[C@@H](O)[C@H](O)[C@H]1O)C3; test: as above; type: biochemical, Stevia rebaudiana; conditions: UDPG 100 μM; transfer at R1
Text: as §1

T2 sequence (Q6VAB4 whole entry H25A): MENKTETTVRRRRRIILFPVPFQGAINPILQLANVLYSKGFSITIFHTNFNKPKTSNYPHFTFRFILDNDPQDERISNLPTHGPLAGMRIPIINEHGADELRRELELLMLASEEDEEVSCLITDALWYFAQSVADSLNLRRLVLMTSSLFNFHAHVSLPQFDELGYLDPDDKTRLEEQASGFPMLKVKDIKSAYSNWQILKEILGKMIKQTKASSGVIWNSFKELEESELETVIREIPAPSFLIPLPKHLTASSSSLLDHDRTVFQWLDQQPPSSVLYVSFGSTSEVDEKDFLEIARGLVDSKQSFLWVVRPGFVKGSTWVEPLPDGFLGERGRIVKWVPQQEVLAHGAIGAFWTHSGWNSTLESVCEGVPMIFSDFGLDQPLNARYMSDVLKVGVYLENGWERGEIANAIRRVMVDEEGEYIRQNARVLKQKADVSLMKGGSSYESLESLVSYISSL

For `C=C1C[C@@]23CC[C@H]4[C@@](C)(CCC[C@@]4(C)C(=O)O[C@@H]4O[C@H](CO)[C@@H](O)[C@H](O)[C@H]4O)[C@@H]2CC[C@]1(O[C@@H]1O[C@H](CO)[C@@H](O)[C@H](O)[C@H]1O)C3` [Rubu], the X-ray crystal structure (UGT76G1 [1]; ternary complex with UDP, bound at active site, second remote molecule called artifact) was “the wild type with UDP and Rubu”.

For `O=c1ccn([C@@H]2O[C@H](COP(=O)(O)OP(=O)(O)O)[C@@H](O)[C@H]2O)c(=O)[nH]1` [UDP], the X-ray crystal structure (UGT76G1 [2]) was “both the wild type and H25A mutant of UGT76G1 with UDP” and the X-ray crystal structure (UGT76G1 [1]; sodium citrate pH 5.4, PEG 4000, 1 mM UDP) was “both the wild type and H25A mutant of UGT76G1 with UDP”.

B1: UGT76G1 (Stevia rebaudiana) (protein)
chain: T1 sequence (Q6VAB4 1-458)
notes: synthetic gene in pET21a (NdeI/XhoI), C-terminal hexa-histidine tag, E. coli BL21 (DE3), monomer
For B1, the Km (purified protein [3]) was 243.4 ± 28.1 µM, the kcat (purified protein [3]) was 0.002 s⁻¹ and the kcat/Km (purified protein [3]) was 8 M⁻¹ s⁻¹. For the same molecule, the Km (purified protein [4]) was 25.5 ± 3.4 µM, the kcat (purified protein [4]) was 0.697 s⁻¹ and the kcat/Km (purified protein [4]) was 27300 M⁻¹ s⁻¹. The Km [5] was 5.6 ± 0.4 µM, the kcat [5] was 0.0683 ± 0.00167 s⁻¹ and the kcat/Km [5] was 12400 M⁻¹ s⁻¹. The Km [6] was 9.2 ± 0.7 µM, the kcat [6] was 0.355 ± 0.00833 s⁻¹ and the kcat/Km [6] was 38600 M⁻¹ s⁻¹. For the same molecule, the Km [7] was 54.4 ± 4.0 µM, the kcat [7] was 0.0983 ± 0.00167 s⁻¹ and the kcat/Km [7] was 1800 M⁻¹ s⁻¹. It also gave a Km [8] of 4.8 ± 0.4 µM, a kcat [8] of 0.08 ± 0.00167 s⁻¹ and a kcat/Km [8] of 16500 M⁻¹ s⁻¹.

From publication PMC6642264, “Hydrophobic recognition allows the glycosyltransferase UGT76G1 to catalyze its substrate in two orientations” (Nature Communications, 2019)
